Results published in patent publication US12201699, “Compositions and methods for promoting homology directed repair” (Editas Medicine, Inc.).

B1: ssODN-109 (control) (ssDNA)
DNA: AACAGACACCATGGTGCATCTGACTCGTGTGGAGAAGTCGGCCGTTACTGCCCTGCAGGGCAAGCTTAACGTGGATGAAGTTCGTGGTGAGGCCCTGGGCAGGTTGGTA
B2: ssODN-179 (control) (ssDNA)
DNA: TGCTTCTGACACAACTGTGTTCACTAGCAACCTCAAACAGACACCATGGTGCATCTGACTCGTGTGGAGAAGTCGGCCGTTACTGCCCTGCAGGGCAAGCTTAACGTGGATGAAGTTCGTGGTGAGGCCCTGGGCAGGTTGGTATCAAGGTTACAAGACAGGTTTAAGGAGACCAATAG

Biological target: Tet Repressor (TetR) (UniProt P04483 P04483:1-207)
Sequence (P04483 whole entry, one chain of several): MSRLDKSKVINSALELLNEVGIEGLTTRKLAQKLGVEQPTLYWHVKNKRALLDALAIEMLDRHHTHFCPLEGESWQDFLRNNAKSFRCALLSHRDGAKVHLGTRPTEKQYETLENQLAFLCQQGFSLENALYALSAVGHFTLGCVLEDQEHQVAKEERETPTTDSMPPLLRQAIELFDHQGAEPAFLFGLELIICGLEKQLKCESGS
Experiment: EMSA; lacks Tet operator; 500 nM TetR, 50 nM DNA, 300 mM NaCl, pH 7.7
Conditions: chain copies: 2 (inferred)
From the text: The nucleotide sequence to which the Tet Repressor protein binds, typically consists of several repeats (5 or more) of the Tet Operator (TetO)19 base pair sequence, each followed by a 17 bp spacer. Here, we evaluated the binding of the Tet repressor protein to several Tet Operator sequence-containing variants that included spacer sequences of differing sizes, or no spacer sequences. Specifically, we investigated […] To test the binding capacity of the Tet Operator sequence-containing variants experimentally, 500 nM of recombinant TetR protein (Imgen BioSciences, Inc.; Cat. No. P-1002-0.5 mg) was incubated with 50 nM of template DNA in binding buffer (50 mM HEPES, 20% glycerol, 300 mM NaCl, pH 7.7) and protein binding to the Tet Operator sequence-containing variants was analyzed using an electrophoretic mobility shift assay using a 10% polyacrylamide gel (FIG. 8B).

Binder	binding result
B1	no binding
B2	no binding
